In US20230331852A1 (OSE IMMUNOTHERAPEUTICS, published 2023):

Experiments:
[1] = biological target: T1, human CLEC-1A expressed on the cell membrane (human, UniProt Q8NC01 1-280); experiment: flow cytometry on U266 cells, PE anti-human IgG; % positive cells
T1 construct: Endogenous on human U266 myeloma cells, on monocyte-derived TGFb-DC and macrophages; on CHO cells after transduction with a Clec-1 expressing lentivirus; also called U266 CLEC1; CLEC-1A on U266 cells
T1 sequence: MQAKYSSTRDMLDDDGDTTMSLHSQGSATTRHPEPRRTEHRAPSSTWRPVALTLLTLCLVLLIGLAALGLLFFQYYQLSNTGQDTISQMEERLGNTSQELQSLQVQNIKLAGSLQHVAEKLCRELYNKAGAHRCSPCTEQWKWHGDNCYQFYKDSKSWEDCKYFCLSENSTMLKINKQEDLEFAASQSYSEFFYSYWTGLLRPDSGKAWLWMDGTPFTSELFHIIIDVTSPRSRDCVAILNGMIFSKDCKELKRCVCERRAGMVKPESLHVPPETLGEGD
Description: (§1) Method: To measure binding of anti-CLEC1 on human U266 cell lines (pre-blocked with Fcblock to blocking FcR), antibodies at different concentrations were incubated for 30 min at 4° C., and washed before stained 30 min at 4° C. with PE-labelled anti-human IgG (Biolegend; reference 409304). Samples were analyzed on Cytoflex cytofluorometer (Beckman Coulter). The MFI of anti-CLEC1 was compared between all anti-CLEC1 antibodies and percentage of stained cells was analysed in all conditions.

[2] = biological target: T1, human CLEC-1A expressed on the cell …; experiment: flow cytometry on U266 cells, PE anti-human IgG; median fluorescence
Description: as §1

[3] = biological target: T2, Fc-CLEC1 labelled with Alexa Fluor 488 (human, Alexa Fluor 488 label (sites not given)); experiment: FACS competition: blocks Fc-CLEC1-A488 (10 nM) binding to CLEC-1 ligand on permeabilised Raji cells; IC50 median
T2 construct: also called Fc-CLEC1-A488; Alexa488-Fc-Clec-1
T2 chain: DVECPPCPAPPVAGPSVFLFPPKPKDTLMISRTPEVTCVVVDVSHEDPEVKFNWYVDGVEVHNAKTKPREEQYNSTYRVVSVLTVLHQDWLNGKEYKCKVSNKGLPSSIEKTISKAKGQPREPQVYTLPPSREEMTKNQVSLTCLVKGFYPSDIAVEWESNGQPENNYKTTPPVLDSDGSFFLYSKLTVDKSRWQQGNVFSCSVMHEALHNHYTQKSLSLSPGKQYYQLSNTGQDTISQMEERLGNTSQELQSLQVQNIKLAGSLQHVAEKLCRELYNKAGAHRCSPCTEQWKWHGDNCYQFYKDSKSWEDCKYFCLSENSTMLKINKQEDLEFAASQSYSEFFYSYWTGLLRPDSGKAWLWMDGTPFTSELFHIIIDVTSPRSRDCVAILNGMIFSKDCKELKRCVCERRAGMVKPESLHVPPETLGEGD
Description: To measure competition, purified anti-Clec antibodies at different concentrations were pre-incubated in Perm Wash Buffer with Alexa488-Fc-Clec-1 for 15 min at room temperature. Pre-incubated mixes were then incubated on permeabilized and Fc-blocked Raji cells for 30 min on ice. Binding on cells were then fixed by PFA 2% in cold PBS for 10 min on ice and analyzed on CytoFlex cytofluorometer (Beckman Coulter France, Villepinte).
(§2) Methods. To measure competition on permeabilised Raji (CytoFix/cytoperm kit, BD Biosciences) which expressed CLEC1 ligand, Fc-CLEC1-labelled A488 which bound specifically to permeabilised Raji was used. To measure competition, Fc-CLEC1 labelled A488 at 10 nM or 20 nM was mixed with mouse anti-hCLEC1 at different concentrations for 15 min at RT then added on these cells for 30 min at 4° C. […] To measure competition on PMBC, we used human PBMC pre-treated by UV for 18 h to obtain apoptotic PBMC, which expressed CLEC1 ligand. Fc-CLEC1-labelled A488 bound specifically apoptotic UV-treated PBMC. To measure competition, Fc-CLEC1 labelled A488 at 10 nM was mixed with mouse anti-hCLEC1 at different concentrations for 15 min at RT then added on these cells for 30 min at 4° C.

[4] = biological target: T3, recombinant human CLEC-1 protein with His Tag (#1704-CL R&D Systems) (human, UniProt Q8NC01 74-280); experiment: BLI (Blitz), CLEC1-His on Ni-NTA biosensor, antibody at 20 ug/mL; chimeric antibody, FIG. 17
T3 construct: Bought protein; also called His-CLEC1; His Clec-1; not shown: His tag
T3 sequence: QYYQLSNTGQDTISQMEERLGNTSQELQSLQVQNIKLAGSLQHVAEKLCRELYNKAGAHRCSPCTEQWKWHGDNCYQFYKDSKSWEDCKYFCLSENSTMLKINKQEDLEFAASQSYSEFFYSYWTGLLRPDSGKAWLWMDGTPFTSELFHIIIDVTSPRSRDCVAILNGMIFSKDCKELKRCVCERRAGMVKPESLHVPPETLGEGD
Description: Analysis was performed with a BLItz System (Fortébio, #C22-2 No 61010-1, Molecular Devices, San José, USA).
The affinity of the anti-hCLEC1 antibodies, was measured with Blitz system (Forté Bio, C22-2 No 61010-1).

[5] = biological target: T1, human CLEC-1A expressed on the cell …; experiment: flow cytometry on U266 cells
Description: as §1

[6] = biological target: T2, Fc-CLEC1 labelled with Alexa Fluor 488; experiment: FACS competition: blocks Fc-CLEC1-A488 (10 nM) binding to CLEC-1 ligand on UV-treated PBMC; % binding
Description: Competition were also measured on UV pre-treated pro-apoptotic human PBMCs, which can also express the ligand after a treatment under UV radiation for 18 hours. After UV treatment, cells were first washed in cold-PSE and then blocked during 30 min at room temperature with human Fc-block 50-fold diluted in PSE, and then replaced on ice. Purified anti-Clec antibodies at different concentrations were pre-incubated with Alexa488-Fc-Clec-1 in PSE at different concentrations for 15 min at room temperature. Pre-incubated mixes were then incubated on Fc-blocked/SAB (#34005-100, Invitrogen, Illkirch, France) pro-apoptotic PBMCs for 30 min on ice. Binding on cells were then fixed by PFA 2% in cold PBS for 10 min on ice and analyzed on CytoFlex cytofluorometer (Beckman Coulter France, Villepinte).
as §2

B1: chimeric anti-CLEC-1A antibody 14H9 (antibody, human IgG4 S228P, kappa, V domains shown)
VH: QVQLKESGPGLVAPSQSLSITCTISGFSLTTYGIHWVRQPPGKGLEWLVVIWSDGSTIYNSALKSRLSISKDNSKSQVFLKMNSLQTDDTAIYYCARHGGYYNYFDYWGQGTTLTVSS
VL: DIQMNQSPSSLSASLGDTITITCHASQNINVWLSWYQQKPGNIPKLLIYKASNLHTGVPSRFSGSGSGTTFTLTIDSLQPEDIATYYCQQGQSYWTFGGGTKLEIKR
notes: also called 14H9chim; 14H9-VHwt-FcG4m / 14H9-VLwt-CLhk
- EC50 (read off the curve) [1]: ~0.06 µg/mL
- EC50 (read off the curve) [2]: ~0.06 µg/mL
- IC50 [3]: 3.9 nM
- Kd [4]: ~10 nM
- EC50 [5]: 0.113 µg/mL
- IC50 (read off the curve) [6]: ~0.7 µg/mL
